The values that follow come from US20060053496A1 (UNIVERSITY OF NORTH CAROLINA AT CHAPEL HILL, published 2006).

The experiment has as its target T1, FLAG-tagged Monarch-1 (human, UniProt P59046 1-1061).
T1 construct: Expressed in transfected 293T cells and immunoprecipitated from lysate with anti-FLAG M2-agarose; also called FLAG-Monarch-1; Caterpiller 19.3; not shown: N-terminal FLAG tag added by PCR
T1 sequence: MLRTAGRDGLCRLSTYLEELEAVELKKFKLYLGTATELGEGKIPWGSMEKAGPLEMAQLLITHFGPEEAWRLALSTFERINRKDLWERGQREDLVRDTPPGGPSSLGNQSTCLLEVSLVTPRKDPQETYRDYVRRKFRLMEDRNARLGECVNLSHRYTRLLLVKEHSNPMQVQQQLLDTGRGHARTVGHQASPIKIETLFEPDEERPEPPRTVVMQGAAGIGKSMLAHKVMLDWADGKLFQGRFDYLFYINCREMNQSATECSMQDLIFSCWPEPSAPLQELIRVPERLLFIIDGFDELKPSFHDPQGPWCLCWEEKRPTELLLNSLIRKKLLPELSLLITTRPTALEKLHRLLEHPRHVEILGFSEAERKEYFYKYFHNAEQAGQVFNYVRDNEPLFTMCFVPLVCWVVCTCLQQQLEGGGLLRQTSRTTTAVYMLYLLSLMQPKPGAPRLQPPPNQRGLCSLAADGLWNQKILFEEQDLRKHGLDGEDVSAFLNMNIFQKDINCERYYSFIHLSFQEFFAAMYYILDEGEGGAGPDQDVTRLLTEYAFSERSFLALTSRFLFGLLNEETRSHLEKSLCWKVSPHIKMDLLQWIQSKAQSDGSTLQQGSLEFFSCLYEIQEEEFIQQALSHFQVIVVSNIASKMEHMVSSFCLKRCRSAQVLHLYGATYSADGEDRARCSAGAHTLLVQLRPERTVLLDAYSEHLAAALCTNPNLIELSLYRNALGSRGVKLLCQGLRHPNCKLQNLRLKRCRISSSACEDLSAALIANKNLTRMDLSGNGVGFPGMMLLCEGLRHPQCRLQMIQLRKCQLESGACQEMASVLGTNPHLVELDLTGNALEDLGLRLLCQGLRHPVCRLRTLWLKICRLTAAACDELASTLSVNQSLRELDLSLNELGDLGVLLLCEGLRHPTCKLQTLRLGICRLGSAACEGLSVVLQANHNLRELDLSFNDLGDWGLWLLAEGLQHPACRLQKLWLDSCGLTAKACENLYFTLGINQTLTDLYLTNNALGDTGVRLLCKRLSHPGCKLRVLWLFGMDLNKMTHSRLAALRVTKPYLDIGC
Put plainly: co-immunoprecipitation from transfected 293T cells (anti-FLAG M2-agarose IP, anti-HA western blot). The protocol:
Transfections and Immunoprecipitations. 2.5 million 293T cells were seeded in 10-cm cell culture plates. Eighteen to twenty-four hours later, 3 μg of each of the indicated plasmids was transfected using FUGENE6™ (Roche, Indianapolis, Ind.) at a 3:1 FUGENE6™ to DNA ratio and the cells were incubated an additional 18 to 24 hours. Cells were lysed in 0.5% NP-40, 150 mM NaCl, 50 mM Tris pH 8.0, 160 mM EDTA, 50 mM NaF, 10 mM sodium phosphate supplemented with protease inhibitor cocktail (Roche, Indianapolis, Ind.). Nuclei were removed and the resulting supernatant was pre-cleared with mouse IgG-conjugated agarose (Sigma, St. Louis) for 1 hour. FLAG®-tagged proteins were subsequently immunoprecipitated overnight with 35 μl M2-agarose equilibrated in lysis buffer. Beads were washed four times in lysis buffer and proteins eluted in sample buffer (20% Glycerol, 4% SDS, 130 mM Tris pH 6.8, 20 mM DTT) for western blot analysis.
Monarch-1 Associates with TRAF6 but not MyD88 or IRAK1. In addition to the proteins identified by MALDI-MS, 293T cells were transfected with Monarch-1 cDNA and one of the following: HA-MyD88, HA-TRAF6, or HA-IRAK1. Twenty-four hours later the cells were lysed and Monarch-1-containing protein complexes were immunoprecipitated with anti-FLAG® M2-agarose beads overnight. […]

B1: HA-IRAK1 (enzyme, human, UniProt P51617 1-712, looked up)
chain: MAGGPGPGEPAAPGAQHFLYEVPPWVMCRFYKVMDALEPADWCQFAALIVRDQTELRLCERSGQRTASVLWPWINRNARVADLVHILTHLQLLRARDIITAWHPPAPLPSPGTTAPRPSSIPAPAEAEAWSPRKLPSSASTFLSPAFPGSQTHSGPELGLVPSPASLWPPPPSPAPSSTKPGPESSVSLLQGARPFPFCWPLCEISRGTHNFSEELKIGEGGFGCVYRAVMRNTVYAVKRLKENADLEWTAVKQSFLTEVEQLSRFRHPNIVDFAGYCAQNGFYCLVYGFLPNGSLEDRLHCQTQACPPLSWPQRLDILLGTARAIQFLHQDSPSLIHGDIKSSNVLLDERLTPKLGDFGLARFSRFAGSSPSQSSMVARTQTVRGTLAYLPEEYIKTGRLAVDTDTFSFGVVVLETLAGQRAVKTHGARTKYLKDLVEEEAEEAGVALRSTQSTLQAGLAADAWAAPIAMQIYKKHLDPRPGPCPPELGLGLGQLACCCLHRRAKRRPPMTQVYERLEKLQAVVAGVPGHSEAASCIPPSPQENSYVSSTGRAHSGAAPWQPLAAPSGASAQAAEQLQRGPNQPVESDESLGGLSAALRSWHLTPSCPLDPAPLREAGCPQGDTAGESSWGSGPGSRPTAVEGLALGSSASSSSEPPQIIINPARQKMVQKLALYEDGALDSLQLLSSSSLPGLGLEQDRQGPEESDEFQS
notes: not shown: double 5' (N-terminal) HA tag
As for B1, the binding result is “no binding”.
